Laboratory results reported in US20120028271A1.

Assays:
[1] = molecular target: proteasome of mammalian cell and human tissue extracts (detected through Rpt1, Rpn2, Rpn1 and 20S alpha subunits and chymotryptic activity) (human); experiment: GST pull-down from cell extracts, co-purified chymotryptic activity standardized to UbL-A, 14 measurements
[2] = molecular target: proteasome of mammalian cell and human tissue extracts (detected through Rpt1, Rpn2, Rpn1 and 20S alpha subunits and chymotryptic activity) (human); experiment: GST pull-down from cell extracts, co-purified chymotryptic activity, 5 measurements

Chain of proteasome of mammalian cell and human tissue extracts (detected through Rpt1, Rpn2, Rpn1 and 20S alpha subunits and chymotryptic activity) (human) (P35998 2-433, form in doubt, chain 1 of 2): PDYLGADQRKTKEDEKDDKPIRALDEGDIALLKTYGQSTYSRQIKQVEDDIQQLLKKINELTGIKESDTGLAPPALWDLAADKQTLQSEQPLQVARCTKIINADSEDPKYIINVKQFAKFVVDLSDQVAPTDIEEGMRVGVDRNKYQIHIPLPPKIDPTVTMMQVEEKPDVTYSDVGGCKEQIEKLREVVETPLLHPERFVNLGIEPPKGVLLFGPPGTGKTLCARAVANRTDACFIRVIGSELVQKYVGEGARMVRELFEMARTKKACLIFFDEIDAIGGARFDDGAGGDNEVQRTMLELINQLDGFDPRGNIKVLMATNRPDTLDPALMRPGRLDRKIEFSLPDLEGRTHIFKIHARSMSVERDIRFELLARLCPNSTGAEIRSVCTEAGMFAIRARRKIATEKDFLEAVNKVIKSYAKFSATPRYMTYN
Chain of proteasome of mammalian cell and human tissue extracts (detected through Rpt1, Rpn2, Rpn1 and 20S alpha subunits and chymotryptic activity) (human) (B8ZZH9 whole entry, form in doubt, chain 2 of 2, further chain): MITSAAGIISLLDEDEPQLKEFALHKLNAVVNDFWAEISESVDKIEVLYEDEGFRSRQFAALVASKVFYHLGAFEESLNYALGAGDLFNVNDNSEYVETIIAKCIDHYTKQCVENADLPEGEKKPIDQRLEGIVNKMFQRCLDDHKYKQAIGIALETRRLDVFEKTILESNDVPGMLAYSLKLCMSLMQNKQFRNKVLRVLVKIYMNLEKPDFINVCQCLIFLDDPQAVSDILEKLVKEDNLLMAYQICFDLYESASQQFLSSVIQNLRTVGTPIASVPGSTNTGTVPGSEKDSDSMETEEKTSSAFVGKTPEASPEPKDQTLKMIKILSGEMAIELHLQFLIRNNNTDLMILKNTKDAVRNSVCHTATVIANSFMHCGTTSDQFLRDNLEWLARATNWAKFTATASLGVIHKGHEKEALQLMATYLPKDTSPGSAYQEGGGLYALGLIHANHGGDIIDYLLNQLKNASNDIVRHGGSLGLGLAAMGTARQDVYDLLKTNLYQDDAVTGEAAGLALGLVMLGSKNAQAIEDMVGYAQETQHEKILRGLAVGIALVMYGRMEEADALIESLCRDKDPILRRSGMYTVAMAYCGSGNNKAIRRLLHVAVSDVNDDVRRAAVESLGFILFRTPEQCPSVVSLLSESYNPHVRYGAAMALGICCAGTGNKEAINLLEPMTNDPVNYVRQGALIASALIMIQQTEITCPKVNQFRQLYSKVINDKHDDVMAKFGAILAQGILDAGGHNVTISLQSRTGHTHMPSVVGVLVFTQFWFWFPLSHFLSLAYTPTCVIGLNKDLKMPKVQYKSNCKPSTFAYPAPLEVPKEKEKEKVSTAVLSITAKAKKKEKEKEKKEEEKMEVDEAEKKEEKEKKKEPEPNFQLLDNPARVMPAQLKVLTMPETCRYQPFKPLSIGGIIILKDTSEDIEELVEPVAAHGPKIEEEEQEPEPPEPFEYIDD

Row | fold proteasome purified (chymotryptic activity) relative to UbL-A [1] | fold increase of proteasome interaction / associated chymotryptic activity relative to UbL-A^1-79 [2] | Molecule
1 | 2.94 fold |  | GST-UbL-B (UbL domain of human hHR23B, residues 1-78) (from UniProt P54727 1-78)
2 |  | 2.5 fold | GST-UbL-A^1-78 (UbL domain of hHR23A ending in Val-Val-Val-Met-Val-Thr-Lys) (protein, not shown: a dimerising Fc or GST) MAVTITLKTLQQQTFKIRMEPDETVKVLKEKIEAEKGRDAFPVAGQKLIYAGKILSDDVPIRDYRIDEKNFVVVMVTK
